Legend:
[1] = biological target: shrimp hemocyanin (SHC) from Litopenaeus vannamei (Litopenaeus vannamei) (UniProt Q26180); test: SEC; purified SHC dissolved in PBS, Superdex-200 column, size by standard proteins
[2] = biological target: shrimp hemocyanin (SHC) from Litopenaeus vannamei (Litopenaeus vannamei) (UniProt Q26180); test: SEC + other: transmission electron microscopy (uranyl acetate stain); purified SHC in PBS; Superdex-200 elution and particle diameters on a carbon-coated grid (FEI F20, 120 kV), compared with AlphaFold models of monomer and tetramer

percent of SHC eluting between 158 and 440 kDa [1]: 80%
stoichiometry N [2]: 4
Substance: shrimp hemocyanin (SHC) from Litopenaeus vannamei (from UniProt Q26180 1-662) (natural protein)

Reference: PMC11263335
